For one test, the target named is T1, PHD1KDM5B (306–360 aa) (Homo sapiens, UniProt Q9UGL1).
T1 construct: PHDKDM5B (residues 306–360 aa); GST (N, cleaved yes); made in house
T1 sequence (Q9UGL1 306-360): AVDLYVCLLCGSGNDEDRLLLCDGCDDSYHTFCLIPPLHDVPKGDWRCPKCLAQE
Briefly: ITC binding of H3 peptides to PHD1KDM5B. From the text: The details of the preparation, purification, crystallization and determination of the PHDKDM5B (residues 306–360 aa) X-ray structure were previously described (Guo et al., [2011]). The modified pGEX-6p-1 vectors expressed proteins with the N-terminal GST tag, which is removable by cleavage with a 3C protease, enabling the use of non-tagged proteins in our studies. Only the X-ray structure of free PHD1KDM5B was obtained.
To study the binding affinities in vitro or to construct different NMR samples of the complex, H3K4 peptides without modifications (with the ARTKQTARKS sequence or […] sequence) or with some modifications (H3R2me1, R2 monomethylation; H3R2me2s, R2 symmetric dimethylation; H3R2me2a, R2 asymmetric dimethylation; H3K4me1/2/3, K4 mono-, di-, and tri-methylation; H3K9me1/2/3, K9 mono-, di- and tri-methylation; H3 peptide A1G, R2A, T3V, K4A, Q5E, T6V mutants without any modification) were purchased from GL Biochem Ltd. (Shanghai, China), and their purity was confirmed by HPLC and mass spectrometry.
To investigate whether the PHD1KDM5B finger and its mutants interact with unmodified or methylated H3K4 or H3K4mutants, the binding affinities of PHD1KDM5B or its mutants to H3 peptides were studied. An ITC-200 microcalorimeter (GE Healthcare) was used with a buffer containing 20 mmol/L Tris, 150 mmol/L NaCl, and 1% Triton X-100, pH 7.5 at 25°C. The reference titration of small molecules in the buffer was subtracted from the experimental data, and the data were fitted using the Origin 7.0 (OriginLab Corporation) software.

In test [1] the target is PHD1 finger of KDM5B (residues 306-360) (UniProt Q9UGL1). Briefly: ITC; ITC-200, 20 mmol/L Tris, 150 mmol/L NaCl, 1% Triton X-100, pH 7.5, 25°C.
Test [2] has as its target H3K4 (1-10aa) K4A (Homo sapiens). Briefly: ITC. The settings on record: domain or fragment; chains chain.
Test [3] deals with H3K4 (1-10aa) Q5E (Homo sapiens). In words: ITC. The note with it: domain or fragment; chains chain.
The next test addresses T2, KDM5B-PHD1-Y334A (Homo sapiens).
T2 chain: T1 sequence (Q9UGL1 306-360) with Y29A
In words: ITC.

The next test concerns the target T3, KDM5B-PHD1-L309A (Homo sapiens).
T3 chain: T1 sequence (Q9UGL1 306-360) with L4A
Briefly: ITC.

In a further test the target is T4, KDM5B-PHD1-V311A (Homo sapiens).
T4 chain: T1 sequence (Q9UGL1 306-360) with V6A
In words: ITC.

The next test concerns the target T5, KDM5B-PHD1-D345A (Homo sapiens).
T5 chain: T1 sequence (Q9UGL1 306-360) with D40A
Briefly: ITC.

A further test has as its target T6, KDM5B-PHD1-S333A (Homo sapiens).
T6 chain: T1 sequence (Q9UGL1 306-360) with S28A
Briefly: ITC.

Another test concerns the target T7, KDM5B-PHD1-L324A (Homo sapiens).
T7 chain: T1 sequence (Q9UGL1 306-360) with L19A
In words: ITC.

The next test addresses T8, KDM5B-PHD1-D322A (Homo sapiens).
T8 chain: T1 sequence (Q9UGL1 306-360) with D17A
Briefly: ITC.

In another test the target is T9, KDM5B-PHD1-D332A (Homo sapiens).
T9 chain: T1 sequence (Q9UGL1 306-360) with D27A
Briefly: ITC.

Test [4] concerns the target T10, PHD1 finger of KDM5B (residues 306-360) (UniProt Q9UGL1 306-360).
T10 construct: 15N- or 13C/15N-labelled (M9 medium) for the NMR experiments; GST removed with 3C protease; also called PHD1_(KDM5B); PHD_(KDM5B); source: recombinant from modified pGEX-6p-1, purified; preparation described in Guo et al., 2011; not shown: GST, N-terminal, cleaved
T10 sequence (looked up): T1 sequence (Q9UGL1 306-360)
Briefly: ITC; ITC-200, 20 mmol/L Tris, 150 mmol/L NaCl, 1% Triton X-100, pH 7.5, 25°C. The note with it: both partners purified.

Test [5] addresses T11, PHD1_(KDM5B) Y310F mutant (UniProt Q9UGL1 306-360, Y310F).
T11 construct: also called PHD1 Y310F; source: recombinant from modified pGEX-6p-1, site-directed mutagenesis; not shown: GST, N-terminal, cleaved
T11 sequence (looked up): T1 sequence (Q9UGL1 306-360) with Y5F
The test is described as above. The note with it: both partners purified.

Test [6] deals with T12, PHD1_(KDM5B) E321A mutant (UniProt Q9UGL1 306-360, E321A).
T12 construct: also called PHD1 E321A; source: recombinant from modified pGEX-6p-1, site-directed mutagenesis; not shown: GST, N-terminal, cleaved
T12 sequence (looked up): T1 sequence (Q9UGL1 306-360) with E16A
The test is described as above. The settings on record: both partners purified.

The target in test [7] is T13, PHD1_(KDM5B) L326A mutant (UniProt Q9UGL1 306-360, L326A).
T13 construct: also called PHD1 L326A; source: recombinant from modified pGEX-6p-1, site-directed mutagenesis; not shown: GST, N-terminal, cleaved
T13 sequence (looked up): T1 sequence (Q9UGL1 306-360) with L21A
Described as above. The note with it: both partners purified.

Test [8] has as its target T14, PHD1_(KDM5B) D328A mutant (UniProt Q9UGL1 306-360, D328A).
T14 construct: also called PHD1 D328A; source: recombinant from modified pGEX-6p-1, site-directed mutagenesis; not shown: GST, N-terminal, cleaved
T14 sequence (looked up): T1 sequence (Q9UGL1 306-360) with D23A
The description is as above. The note with it: both partners purified.

For test [9], the target named is T15, PHD1_(KDM5B) D308A mutant (UniProt Q9UGL1 306-360, D308A).
T15 construct: also called PHD1 D308A; source: recombinant from modified pGEX-6p-1, site-directed mutagenesis; not shown: GST, N-terminal, cleaved
T15 sequence (looked up): T1 sequence (Q9UGL1 306-360) with D3A
The description is as above. The note with it: both partners purified.

The target of test [10] is T16, PHD1_(KDM5B) Y310A mutant (UniProt Q9UGL1 306-360, Y310A).
T16 construct: also called PHD1 Y310A; source: recombinant from modified pGEX-6p-1, site-directed mutagenesis; not shown: GST, N-terminal, cleaved
T16 sequence (looked up): T1 sequence (Q9UGL1 306-360) with Y5A
The test is described as above. The note with it: both partners purified.

Where [11] appears, read: Table S1, pH 7.5, 25°C, H3 peptides (1-10aa), N.D. means non-detectable.
Setting [12] is: ITC-200, 20 mmol/L Tris, 150 mmol/L NaCl, 1% Triton X-100, pH 7.5, 25°C, H3 peptides residues 1–10, means (± s.d.) of at least three experiments.

Numbering of substitutions follows the chain as printed.

Here are results for 15 molecules from publication PMC4225485, “The PHD1 finger of KDM5B recognizes unmodified H3K4 during the demethylation of histone H3K4me2/3 by KDM5B” (Protein & Cell, 2014).

For `C[C@H](N)C(=O)N[C@@H](CCCNC(=N)N)C(=O)N[C@H](C(=O)N[C@@H](CCCCN)C(=O)N[C@@H](CCC(=O)O)C(=O)N[C@H](C(=O)N[C@@H](C)C(=O)N[C@@H](CCCNC(=N)N)C(=O)N[C@@H](CCCCN)C(=O)N[C@@H](CO)C(=O)O)[C@@H](C)O)[C@@H](C)O` [H3K4 (1-10aa) Q5E], at PHD1KDM5B (306–360 aa) (setting [11]), the Kd stood at 21.4 ± 1.7 µM.
For the molecule `C[C@H](NC(=O)[C@@H](NC(=O)[C@H](CCC(N)=O)NC(=O)[C@H](CCCCN)NC(=O)[C@@H](NC(=O)[C@H](CCCNC(=N)N)NC(=O)CN)[C@@H](C)O)[C@@H](C)O)C(=O)N[C@@H](CCCNC(=N)N)C(=O)N[C@@H](CCCCN)C(=O)N[C@@H](CO)C(=O)O` [H3K4 (1-10aa) A1G], the Kd at PHD1KDM5B (306–360 aa) (setting [12]) came out at 305 ± 11.7 µM.
“H3 peptide T6V mutant (from UniProt P68431 2-11)” yielded a Kd in test [1] of 61.3 µM.
As for “H3K4 (1-10aa) K4E: unmodified H3 peptide (1-10aa) K4E mutant (ARTEQTARKS; UniProt P68431 2-11, looked up, variant K4E)”, the KD entry with PHD1KDM5B (306–360 aa) (setting [12]) is given as “non-detectable”.
Take `CC(C)[C@H](NC(=O)[C@H](CCCNC(=N)N)NC(=O)[C@H](C)N)C(=O)N[C@@H](CCCCN)C(=O)N[C@@H](CCC(N)=O)C(=O)N[C@H](C(=O)N[C@@H](C)C(=O)N[C@@H](CCCNC(=N)N)C(=O)N[C@@H](CCCCN)C(=O)N[C@@H](CO)C(=O)O)[C@@H](C)O` [H3K4 (1-10aa) T3V]: the Kd at PHD1KDM5B (306–360 aa) (setting [12]) was found to be 57.1 ± 2.2 µM.
Still for that read-out and setting: with `C[C@H](N)C(=O)N[C@@H](C)C(=O)N[C@H](C(=O)N[C@@H](CCCCN)C(=O)N[C@@H](CCC(N)=O)C(=O)N[C@H](C(=O)N[C@@H](C)C(=O)N[C@@H](CCCNC(=N)N)C(=O)N[C@@H](CCCCN)C(=O)N[C@@H](CO)C(=O)O)[C@@H](C)O)[C@@H](C)O` [H3K4 (1-10aa) R2A] the figure was 370 ± 52.1 µM.
The molecule `C[C@H](N)C(=O)N[C@@H](CCCNC(=N)N)C(=O)N[C@H](C(=O)N[C@@H](C)C(=O)N[C@@H](CCC(N)=O)C(=O)N[C@H](C(=O)N[C@@H](C)C(=O)N[C@@H](CCCNC(=N)N)C(=O)N[C@@H](CCCCN)C(=O)N[C@@H](CO)C(=O)O)[C@@H](C)O)[C@@H](C)O` [H3K4 (1-10aa) K4A] yielded a Kd on PHD1KDM5B (306–360 aa) (setting [11]) of 15.9 ± 1.2 µM.
Consider “H3K4 (1-10aa) R2E: unmodified H3 peptide (1-10aa) R2E mutant (AETKQTARKS; UniProt P68431 2-11, looked up, variant R2E)”, for which, in the test with PHD1KDM5B (306–360 aa) (setting [12]), the KD result is “too small to detect”.
In test [1], “H3 peptide T3V mutant (from UniProt P68431 2-11)” had a Kd of 57.1 µM.
In [1], “H3 peptide R2A mutant (from UniProt P68431 2-11)” showed a Kd of 370 µM.
The molecule `CC(C)[C@H](NC(=O)[C@H](CCC(N)=O)NC(=O)[C@H](CCCCN)NC(=O)[C@@H](NC(=O)[C@H](CCCNC(=N)N)NC(=O)[C@H](C)N)[C@@H](C)O)C(=O)N[C@@H](C)C(=O)N[C@@H](CCCNC(=N)N)C(=O)N[C@@H](CCCCN)C(=O)N[C@@H](CO)C(=O)O` [H3K4 (1-10aa) T6V] displayed a Kd at PHD1KDM5B (306–360 aa) (setting [12]) of 61.3 ± 1.6 µM.
“H3 peptide A1G mutant (from UniProt P68431 2-11)” had a Kd in test [1] of 305 µM.

B1: PHD1 finger of KDM5B (residues 306-360), Q9UGL1 306-360 (protein)
chain: T1 sequence (Q9UGL1 306-360)
For the molecule B1, the values for the Kd in test [2] and in test [3] were 15.9 µM and 21.4 µM, respectively.

B2: unmodified H3K4 peptide (residues 1-10) (peptide)
peptide: ARTKQTARKS
notes: histone H3 N-terminal tail, residues 1-10; also called H3K4me0; H3K4me0 peptide; source: synthetic peptide, bought: GL Biochem Ltd. (Shanghai, China)
Regarding B2, the Kd with KDM5B-PHD1-Y334A was 12.6 µM; in the test with KDM5B-PHD1-L309A it was 8.3 µM; with KDM5B-PHD1-V311A, 8.2 µM; in the test with KDM5B-PHD1-D345A, 6.7 µM; in the test with KDM5B-PHD1-S333A, 12.9 µM; with KDM5B-PHD1-L324A, 15.3 µM. The dissociation constant (Kd) is 10.7 µM in the test with KDM5B-PHD1-D322A; 11.3 µM with KDM5B-PHD1-D332A; 6.4 µM in test [4]; 4.3 ± 0.2 µM in [5]; 75.8 ± 5.7 µM in test [6]; 14.1 ± 0.8 µM in test [7]. The results for the dissociation constant (Kd) in test [8], in [9] and in test [10] were 182 ± 21.9 µM, 41.7 ± 2.2 µM and 28.1 ± 1.3 µM, respectively.

B3: tri-methylated H3K4me3 peptide (residues 1-10) (peptide)
peptide: ARTKQTARKS
modifications: trimethyl-lysine at K4
notes: histone H3 N-terminal tail, residues 1-10; source: synthetic peptide, bought: GL Biochem Ltd. (Shanghai, China)
In test [4], B3 showed a Kd of 104 µM.
